The record followed here is publication PMC4405576, “The Crystal Structure and Small-Angle X-Ray Analysis of CsdL/TcdA Reveal a New tRNA Binding Motif in the MoeB/E1 Superfamily” (PLoS ONE, 2015).

For series [1], the target named is tRNA threonylcarbamoyladenosine dehydratase A (TcdA) (E. coli) (UniProt Q46927). In words: AUC; sedimentation velocity and sedimentation equilibrium, 20°C, 20 mM HEPES, 100 mM KCl, 50 mM NaCl, pH 7.4; TcdA alone.
The target is the same in series [2]. In words: SEC; analytical gel filtration of TcdA alone; data not shown.
Series [3] has the same target. Briefly: SAXS; purified TcdA, batch setup, three concentrations between 0.5-5 mg/ml, 5°C, 20 mM sodium/potassium phosphate pH 7.4, 300 mM NaCl, 2 mM β-mercaptoethanol.
Series [4] concerns the target T1, CsdL/TcdA (Escherichia coli, UniProt Q46927).
T1 sequence (Q46927 1-268): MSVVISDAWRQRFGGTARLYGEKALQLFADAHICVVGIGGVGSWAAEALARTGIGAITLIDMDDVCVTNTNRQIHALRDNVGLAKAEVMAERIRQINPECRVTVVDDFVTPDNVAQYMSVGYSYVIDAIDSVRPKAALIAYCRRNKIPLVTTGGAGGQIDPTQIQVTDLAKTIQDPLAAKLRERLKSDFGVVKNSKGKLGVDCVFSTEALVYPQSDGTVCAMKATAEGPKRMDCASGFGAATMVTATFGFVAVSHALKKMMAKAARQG
In words: X-ray crystallography. As to conditions: crystals in 0.05 M potassium phosphate, 10% PEG1000, basic pH, 20 °C; 1.77 Å; K+ and Na+ bound; nucleotide-binding site crystallisation; 1.89 Å; AMP as obtained directly from the cell (co-purified); n.

For series [5], the system named is TcdA (CsdL) (Escherichia coli). Briefly: intrinsic fluorescence quenching. The conditions noted are these: native tRNA modifications possible, not determined.

Take “tRNA threonylcarbamoyladenosine dehydratase A (TcdA) (from UniProt Q46927 1-268) (enzyme)”: the stoichiometry N in series [1], in series [2] and in series [3] was 2 in each case. On to `Nc1ncnc2c1ncn2[C@@H]1O[C@H](COP(=O)(O)O)[C@@H](O)[C@H]1O` [AMP], for which, in series [4], the X-ray crystallography result is given as “the nucleotide-binding residues stabilize AMP in a manner analogous to ATP”. On to tRNALys(UUU), overexpressed in E. coli, for which the Kd (commonly the constant that tells how readily two partners part at equilibrium) in series [5] worked out at 3 µM. This counts as single-digit micromolar.
